Laboratory results from article PMC2867956, “Interdomain Interactions Control Ca^2+-Dependent Potentiation in the Cation Channel TRPV4” (PLoS ONE, 2010).

System: CFP-fused N1
Experiment: FRET acceptor bleaching, N1/C1 interaction in HEK293 cells
Format: cell-based, human
Conditions: YFP-fused C1 and CFP-fused N1 coexpressed in HEK293 cells
Description: (See Methods S1 for details).

B1: C1: full-length TRPV4 C terminus, residues 721-871 (protein, UniProt Q9HBA0 721-871, looked up, fragment)
chain: TVGQVSKESKHIWKLQWATTILDIERSFPVFLRKAFRSGEMVTVGKSSDGTPDRRWCFRVDEVNWSHWNQNLGIINEDPGKNETYQYYGFSHTVGRLRRDRWSSVVPRVVELNKNSNPDEVVVPLDSMGNPRCDGHQQGYPRKWRTDDAPL
- FRET interaction of N1 and C1: interact
